Test results published in article PMC9637154 (Communications Biology, 2022).
Numbering of substitutions follows the chain as printed. Names may count otherwise. “And” between values parts separate entries of the source, which are not always exact repeats. Equal entries are not always repeated.

B1: soluble hACE2 N53S/N322S (receptor)
chain: STIEEQAKTFLDKFNHEAEDLFYQSSLASWNYNTSITEENVQNMNNAGDKWSAFLKEQSTLAQMYPLQEIQNLTVKLQLQALQQNGSSVLSEDKSKRLNTILNTMSTIYSTGKVCNPDNPQECLLLEPGLNEIMANSLDYNERLWAWESWRSEVGKQLRPLYEEYVVLKNEMARANHYEDYGDYWRGDYEVNGVDGYDYSRGQLIEDVEHTFEEIKPLYEHLHAYVRAKLMNAYPSYISPIGCLPAHLLGDMWGRFWTNLYSLTVPFGQKPNIDVTDAMVDQAWDAQRIFKEAEKFFVSVGLPSMTQGFWENSMLTDPGNVQKAVCHPTAWDLGKGDFRILMCTKVTMDDFLTAHHEMGHIQYDMAYAAQPFLLRNGANEGFHEAVGEIMSLSAATPKHLKSIGLLSPDFQEDNETEINFLLKQALTIVGTLPFTYMLEKWRWMVFKGEIPKDQWMKKWWEMKREIVGVVEPVPHDETYCDPASLFHVSNDYSFIRYYTRTLYQFQFQEALCQAAKHEGPLHKCDISNSTEAGQKLFNMLRLGKSEPWTLALENVVGAKNMNVRPLLNYFEPLFTWLKDQNKNSFVGWSTDWSPYADQSIK
notes: also called double glycan deletant
B2: soluble hACE2 N53A/N322A (receptor)
chain: B1 chain with S35A, S304A
notes: as for B1
B3: soluble hACE2 N53S/N90S/N322S (receptor)
chain: B1 chain with N72S
notes: also called triple glycan deletant
B4: soluble hACE2 N53A/N90A/N322A (receptor)
chain: B1 chain with S35A, N72A, S304A
notes: also called N53A/N90A/N322A triple deletant
B5: soluble hACE2 N53S/N90S (receptor)
chain: B1 chain with N72S, S304N
notes: as for B1
B6: soluble hACE2 N53A/N90A (receptor)
chain: B1 chain with S35A, N72A, S304N
notes: as for B1
B7: soluble hACE2 N90S/N322S (receptor)
chain: B1 chain with S35N, N72S
notes: as for B1
B8: soluble hACE2 N90A/N322A (receptor)
chain: B1 chain with S35N, N72A, S304A
notes: also called N90A/N322A double deletant
B9: shACE2 N90A/N322A double glycan deletant (domain or fragment)
chain: B1 chain with S35N, N72A, S304A
notes: as for B8
B10: shACE2 N53A/N90A/N322A triple glycan deletant (domain or fragment)
chain: B1 chain with S35A, N72A, S304A
notes: also called N53A/N90A/N322A triple deletant; N53A/N90A/N322 triple deletant

These binders were tested against T1, CoV2 Parental S-RBD fused with human Fc (SARS-CoV-2, UniProt P0DTC2) (assay: BLI). Conditions: both partners purified.
T1 construct: also called Parental RBD; RBD-Fc (Parental)
B1 was tested, and the Kd was 438 nM and 457 nM and 448 nM. For B2, the Kd was 411 nM and 395 nM and 403 nM. In the case of B3, the Kd is reported as 178 nM and 219 nM and 198 nM. For B4, the Kd was 262 nM and 246 nM. B5 was tested, and the Kd was 223 nM and 226 nM and 224 nM. For B6, the Kd was 220 nM and 246 nM and 233 nM. In the case of B7, the Kd is reported as 123 nM and 126 nM and 125 nM. For B8, the Kd was 127 nM and 103 nM.

Each binder was assayed against T2, CoV2 Omicron S-RBD with human Fc (SARS-CoV-2, UniProt P0DTC2) (assay: BLI). Conditions: both partners purified.
T2 construct: also called Omicron RBD; RBD-Fc (Omicron)
B1 was tested, and the Kd was 163 nM and 162 nM (2×). B2 was tested, and the Kd was 164 nM and 139 nM and 151 nM. In the case of B3, the Kd is reported as 64.7 nM and 72.7 nM and 68.7 nM. In the case of B4, the Kd is reported as 67.1 nM and 75.5 nM and 71.3 nM. With B5 the Kd was 101 nM and 123 nM and 112 nM. B6 was tested, and the Kd was 83.2 nM and 116 nM and 99.5 nM. In the case of B7, the Kd is reported as 38.2 nM and 38.5 nM and 38.4 nM. B8 was tested, and the Kd was 36.5 nM and 36 nM and 36.3 nM.

What follows are binders tested against T3, CoV2 Parental S-RBD fused with human Fc (SARS-CoV-2, UniProt P0DTC2) (assay: BLI). Conditions: both partners purified.
T3 construct: also called Parental RBD; RBD-Fc
B9 gave a Kd of 115 nM. In the case of B10, the Kd is reported as 254 nM.
